Reference: article PMC10899662, “TopBP1 utilises a bipartite GINS binding mode to support genome replication” (Nature Communications, 2024)

Tested on: chromatin-bound replication proteins
Assay: Chromatin mass spectrometry (CHROMASS) from TopBP1-depleted Xenopus egg extracts
Assay type: biochemical, Xenopus laevis
Settings: mass spectrometry and immunoblotting; 75 min after starting replication, aphidicolin added, TopBP1 6 ng/µl; n = 4 for MS
Description: Fig. 6 GINS binding to TopBP1 is required for the origin firing step of replication. a–c Heat map showing the intensity of chromatin-bound proteins recovered from TopBP1-depleted interphase Xenopus egg extracts supplemented wild type or mutant TopBP1 determined by quantitative mass spectrometry. Chromatin was isolated 75 min after sperm addition. All extracts contained […] aphidicolin and, where indicated, […] geminin. […] For the intensities of all proteins see Supplementary Data 2. b, c Volcano plots highlighting a selection of differentially detected proteins in samples described in (a). Log2 transformed LFQ intensities from four replicates each were analysed by a two-sided Student’s t-test. […] Coomassie staining of the gel part containing histones served as a loading control.
For chromatin isolation, XTopBP1-depleted interphase egg extract was supplemented with 50 µg/ml aphidicolin and aliquoted into 15 µl samples before addition of buffer or recombinant TopBP1 to a final concentration 6 ng/µl. 2.25 µM Xgeminin or buffer were added before incubation for 10 min on ice. To start the replication, 9 ng sperm DNA/µl extract was added and incubated for 75 min at 23 °C. […] For MS analysis, four biological replicates of chromatin pellets were analysed by CHROMASS[45]. […]

B1: TopBP1-BRCT0-5-WT: recombinant TopBP1 amino acids 1–766, strep-tagged (protein)
chain: MSRNDKEPFFVKFLKSSDNSKCFFKALESIKEFQSEEYLQIITEEEALKIKENDRSLYICDPFSGVVFDHLKKLGCRIVGPQVVIFCMHHQRCVPRAEHPVYNMVMSDVTISCTSLEKEKREEVHKYVQMMGGRVYRDLNVSVTHLIAGEVGSKKYLVAANLKKPILLPSWIKTLWEKSQEKKITRYTDINMEDFKCPIFLGCIICVTGLCGLDRKEVQQLTVKHGGQYMGQLKMNECTHLIVQEPKGQKYECAKRWNVHCVTTQWFFDSIEKGFCQDESIYKTEPRPEAKTMPNSSTPTSQINTIDSRTLSDVSNISNINASCVSESICNSLNSKLEPTLENLENLDVSAFQAPEDLLDGCRIYLCGFSGRKLDKLRRLINSGGGVRFNQLNEDVTHVIVGDYDDELKQFWNKSAHRPHVVGAKWLLECFSKGYMLSEEPYIHANYQPVEIPVSHKPESKAALLKKKNSSFSKKDFAPSEKHEQADEDLLSQYENGSSTVVEAKTSEARPFNDSTHAEPLNDSTHISLQEENQSSVSHCVPDVSTITEEGLFSQKSFLVLGFSNENESNIANIIKENAGKIMSLLSRTVADYAVVPLLGCEVEATVGEVVTNTWLVTCIDYQTLFDPKSNPLFTPVPVMTGMTPLEDCVISFSQCAGAEKESLTFLANLLGASVQEYFVRKSNAKKGMFASTHLILKERGGSKYEAAKKWNLPAVTIAWLLETARTGKRADESHFLIENSTKEERSLETEITNGINLNSDTAEHP
modifications: left off: Strep, C-terminal, kept
notes: recombinant TopBP1 amino acids 1–766, strep-tagged
- chromatin binding of replisome markers / Mcm2-7: Several replisome markers, including GINS and Cdc45, were detected on chromatin
